From publication PMC6943125

Columns and labels:
DHX30N = molecular target: T1, DHX30N (human, UniProt Q7L2E3-3 1-152); experiment: fluorescence polarization; 30 nM RNA, pH 6.0 NMR buffer; EMSA: 50 mM Tris-HCl pH 7.5, 150 mM NaCl, 10% glycerol, on ice, 1% agarose 4 C; FP and NMR: pH 6.0 NMR buffer (composition not in material); Ni-NTA: 20 mM Na phosphate pH 6.6, 100 mM NaCl, 20 mM beta-mercaptoethanol, 1% glycerol, room temperature; conditions: protein: recombinant
T1 sequence: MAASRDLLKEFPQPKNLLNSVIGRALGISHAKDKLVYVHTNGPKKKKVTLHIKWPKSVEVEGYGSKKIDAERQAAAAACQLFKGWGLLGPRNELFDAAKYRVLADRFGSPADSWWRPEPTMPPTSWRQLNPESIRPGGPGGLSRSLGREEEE

NS1 RBD = NS1 RBD (Influenza A virus Ud, UniProt P03495 1-73); experiment: NMR; equimolar dsRNA, pH 6.0 NMR buffer; conditions: protein: recombinant; tags: none (SUMO-His6 cleaved); chain copies: 2
Sequence of NS1 RBD (P03495 1-73): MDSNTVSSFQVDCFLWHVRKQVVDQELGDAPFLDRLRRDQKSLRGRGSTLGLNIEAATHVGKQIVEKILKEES

For CCAUCCUCUACAGGCG (ssRNA) [16-nt sense ssRNA], the Kd (DHX30N; label: 5' FAM) was about 500 nM.

B1: 33-bp dsRNA (dsRNA)
RNA 1: CGAGCUCGCCCGGGGAUCCUCUAGAGUCGACCUGC
RNA 2: CUGCAGGUCGACUCUAGAGGAUCCCCGGGCGAGCU
B1: binds (NS1 RBD).

B2: 16-bp dsRNA (dsRNA)
RNA 1: CCAUCCUCUACAGGCG
RNA 2: CGCCUGUAGAGGAUGG
Work on B2 yielded a Kd (DHX30N; label: FAM (sense and antisense)) of about 40 nM.
